Biological target: T1, purified recombinant FLAG-Exp4 protein (human, UniProt Q9C0E2 1-1151)
T1 construct: human exportin 4, full-length cDNA assembled from three clones; also called recombinant Exp4; source: baculovirus system (pFASTBAC), purified recombinant
Test: pull-down; GST-fused HMG box fragments incubated with purified recombinant FLAG-Exp4 and glutathione Sepharose 2 hr at 4°C; Western blot with anti-Exp4; no RanGTP
Conditions: both partners purified

T1 sequence (Q9C0E2 whole entry): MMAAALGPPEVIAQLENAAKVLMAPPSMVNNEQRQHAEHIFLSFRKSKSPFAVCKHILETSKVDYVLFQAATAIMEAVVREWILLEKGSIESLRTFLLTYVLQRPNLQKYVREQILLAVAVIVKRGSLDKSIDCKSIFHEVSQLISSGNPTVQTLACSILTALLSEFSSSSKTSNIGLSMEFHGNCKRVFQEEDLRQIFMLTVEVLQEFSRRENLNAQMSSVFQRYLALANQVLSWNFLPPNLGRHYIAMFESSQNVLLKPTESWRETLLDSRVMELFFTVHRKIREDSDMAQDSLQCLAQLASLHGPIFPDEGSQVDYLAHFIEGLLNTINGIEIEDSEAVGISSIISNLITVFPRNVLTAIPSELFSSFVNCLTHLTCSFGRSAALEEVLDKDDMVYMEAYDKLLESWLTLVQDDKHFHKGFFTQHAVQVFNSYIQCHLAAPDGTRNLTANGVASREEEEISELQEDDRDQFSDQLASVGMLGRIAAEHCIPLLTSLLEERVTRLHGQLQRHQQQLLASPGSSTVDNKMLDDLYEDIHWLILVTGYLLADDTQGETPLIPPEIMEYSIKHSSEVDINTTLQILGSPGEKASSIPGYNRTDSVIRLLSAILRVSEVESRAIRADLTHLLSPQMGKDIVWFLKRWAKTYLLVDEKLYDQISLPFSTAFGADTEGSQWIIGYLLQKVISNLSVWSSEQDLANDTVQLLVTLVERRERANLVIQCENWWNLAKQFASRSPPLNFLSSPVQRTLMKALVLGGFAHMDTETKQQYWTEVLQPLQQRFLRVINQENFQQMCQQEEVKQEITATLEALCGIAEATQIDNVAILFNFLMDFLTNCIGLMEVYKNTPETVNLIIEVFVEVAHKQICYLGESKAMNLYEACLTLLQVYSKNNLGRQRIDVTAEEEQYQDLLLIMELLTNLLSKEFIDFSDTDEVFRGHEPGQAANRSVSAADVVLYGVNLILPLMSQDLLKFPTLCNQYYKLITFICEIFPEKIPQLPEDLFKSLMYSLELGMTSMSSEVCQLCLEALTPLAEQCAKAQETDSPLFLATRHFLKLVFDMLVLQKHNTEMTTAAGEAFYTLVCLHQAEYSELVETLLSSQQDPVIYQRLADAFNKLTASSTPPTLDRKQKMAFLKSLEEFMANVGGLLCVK

Binder	binding result
GST-fused Sox9 region #2 (95–186 a.a.), HMG box domain (domain or fragment, mouse, UniProt Q04887 95-186, looked up, cloned in pGEX-6P-1; also called GST-tagged HMG box fragment of Sox9) VNGSSKNKPHVKRPMNAFMVWAQAARRKLADQYPHLHNAELSKTLGKLWRLLNESEKRPFVEEAERLRVQHKKDHPDYKYQPRRRKSVKNGQ	binds
GST-tagged HMG box fragment of Sox2 (33–123 a.a.) (domain or fragment, source: E. coli, prepared on glutathione-Sepharose) not shown	binds

Source: publication PMC3185033, “Exportin 4 Interacts with Sox9 through the HMG Box and Inhibits the DNA Binding of Sox9” (PLoS ONE, 2011)
